Assay results as given in patent US20220177587A1, “METHODS AND USES OF VARIANT CD80 FUSION PROTEINS AND RELATED CONSTRUCTS” (Alpine Immune Sciences, Inc., priority 2018, published 2022).
Like-named read-outs stand apart in the source and are kept apart here.

Assays:
CD28 (human) [1] = molecular target: CD28 (human) (UniProt P10747)
PD-L1 (human) [2] = molecular target: PD-L1 (human) (UniProt Q9NZQ7)
CD28 (human) [3] = molecular target: CD28 (human) (UniProt P10747); assay: flow cytometry, Jurkat cells (CD28)
human CTLA-4 (human) [4] = molecular target: human CTLA-4 (human) (UniProt P16410); assay: flow cytometry, CHO cells expressing huCTLA4
Chain of human CTLA-4 (human) (P16410 36-223): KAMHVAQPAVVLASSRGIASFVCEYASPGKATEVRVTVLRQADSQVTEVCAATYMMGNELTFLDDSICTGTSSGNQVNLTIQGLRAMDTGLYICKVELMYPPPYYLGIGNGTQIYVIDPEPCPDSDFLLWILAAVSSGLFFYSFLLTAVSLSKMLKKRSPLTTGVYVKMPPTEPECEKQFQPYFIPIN

PD-L1 (human) [5] = molecular target: PD-L1 (human) (UniProt Q9NZQ7); assay: flow cytometry, CHO cells expressing huPD-L1
CD28 (human) [6] = molecular target: CD28 (human) (UniProt P10747); assay: flow cytometry, Jurkat/IL2 reporter cells (CD28)
human CTLA-4 (human) [7] = molecular target: human CTLA-4 (human) (UniProt P16410); assay: flow cytometry, CHO cells stably expressing CTLA4
CD28 (human) [8] = molecular target: CD28 (human) (UniProt P10747); remark: listed apart in the source
CD28 (human) [9] = molecular target: CD28 (human) (UniProt P10747); remark: listed apart in the source
PD-L1 (human) [10] = molecular target: PD-L1 (human) (UniProt Q9NZQ7); remark: listed apart in the source
CD28 (human) [11] = molecular target: CD28 (human) (UniProt P10747); assay: flow cytometry, Jurkat cells (CD28); remark: listed apart in the source
human CTLA-4 (human) [12] = molecular target: human CTLA-4 (human) (UniProt P16410); assay: flow cytometry, CHO cells stably expressing CTLA4; remark: listed apart in the source
PD-L1 (human) [13] = molecular target: PD-L1 (human) (UniProt Q9NZQ7); assay: flow cytometry, CHO cells stably expressing PD-L1
PD-L1 (human) [14] = molecular target: PD-L1 (human) (UniProt Q9NZQ7); assay: flow cytometry, MFI on CHO/PD-L1 over MFI on Jurkat (CD28)
CD28 (human) [15] = molecular target: CD28 (human) (UniProt P10747); assay: flow cytometry, Jurkat cells (CD28); remark: listed apart in the source
human CTLA-4 (human) [16] = molecular target: human CTLA-4 (human) (UniProt P16410); assay: flow cytometry, CHO cells expressing CTLA4
PD-L1 (human) [17] = molecular target: PD-L1 (human) (UniProt Q9NZQ7); assay: flow cytometry, CHO cells expressing PD-L1
PD-L1 (human) [18] = molecular target: PD-L1 (human) (UniProt Q9NZQ7); assay: flow cytometry, MFI on PD-L1 over MFI on CD28
CD28 (human) [19] = molecular target: CD28 (human) (UniProt P10747); remark: listed apart in the source
CD28 (human) [20] = molecular target: CD28 (human) (UniProt P10747); assay: flow cytometry, HEK293 cells transfected with full-length human CD28, PE anti-human Fc
PD-L1 (human) [21] = molecular target: PD-L1 (human) (UniProt Q9NZQ7); assay: flow cytometry, CHO cells expressing huPD-L1; remark: listed apart in the source
human CTLA-4 (human) [22] = molecular target: human CTLA-4 (human) (UniProt P16410); assay: flow cytometry, CHO cells expressing huCTLA-4
CD28 (human) [23] = molecular target: CD28 (human) (UniProt P10747); assay: flow cytometry, Jurkat/IL2 reporter cells (CD28); remark: listed apart in the source
PD-L1 (human) [24] = molecular target: PD-L1 (human) (UniProt Q9NZQ7); assay: flow cytometry, CHO/huPD-L1 cells; vs WT CD80 ECD-Fc (Abcam)
human CTLA-4 (human) [25] = molecular target: human CTLA-4 (human) (UniProt P16410); assay: flow cytometry, CHO/huCTLA-4 cells; vs WT CD80 ECD-Fc (Abcam)
human CTLA-4 (human) [26] = molecular target: human CTLA-4 (human) (UniProt P16410); assay: flow cytometry, CHO cells stably expressing CTLA4; remark: listed apart in the source
PD-L1 (human) [27] = molecular target: PD-L1 (human) (UniProt Q9NZQ7); assay: flow cytometry, CHO cells stably expressing PD-L1; remark: listed apart in the source
human CTLA-4 (human) [28] = molecular target: human CTLA-4 (human) (UniProt P16410); assay: flow cytometry, CHO/CTLA4 cells; MFI over CD80 WT IgV-Fc
PD-L1 (human) [29] = molecular target: PD-L1 (human) (UniProt Q9NZQ7); assay: flow cytometry, CHO/PD-L1 cells; MFI over CD80 WT IgV-Fc
CD28 (human) [30] = molecular target: CD28 (human) (UniProt P10747); assay: flow cytometry, Jurkat cells (CD28); MFI over CD80 WT IgV-Fc
CD28 (human) [31] = molecular target: CD28 (human) (UniProt P10747); remark: listed apart in the source
PD-L1 (human) [32] = molecular target: PD-L1 (human) (UniProt Q9NZQ7); remark: listed apart in the source

Chain of PD-L1 (human) (Q9NZQ7 19-290): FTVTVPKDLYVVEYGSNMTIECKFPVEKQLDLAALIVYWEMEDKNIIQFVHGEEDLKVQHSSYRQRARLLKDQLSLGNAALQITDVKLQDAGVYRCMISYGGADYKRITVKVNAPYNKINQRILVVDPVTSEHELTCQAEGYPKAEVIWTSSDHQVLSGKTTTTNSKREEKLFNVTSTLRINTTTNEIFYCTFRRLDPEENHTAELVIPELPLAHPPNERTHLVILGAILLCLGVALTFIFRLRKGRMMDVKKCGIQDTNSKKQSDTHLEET
Chain of WT CD80 ECD-Fc (inert) (Fc fusion) (chain): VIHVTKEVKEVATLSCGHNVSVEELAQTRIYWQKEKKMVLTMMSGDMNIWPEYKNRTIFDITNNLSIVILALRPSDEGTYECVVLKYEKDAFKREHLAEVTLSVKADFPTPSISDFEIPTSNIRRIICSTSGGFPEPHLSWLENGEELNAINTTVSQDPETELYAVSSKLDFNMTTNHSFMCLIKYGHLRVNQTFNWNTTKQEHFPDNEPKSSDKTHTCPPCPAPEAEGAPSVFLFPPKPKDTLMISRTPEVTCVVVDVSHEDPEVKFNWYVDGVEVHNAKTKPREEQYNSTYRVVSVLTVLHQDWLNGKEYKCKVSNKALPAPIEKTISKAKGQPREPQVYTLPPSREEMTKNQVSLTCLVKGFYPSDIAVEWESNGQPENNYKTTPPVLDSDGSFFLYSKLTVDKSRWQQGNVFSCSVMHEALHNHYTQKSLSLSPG

## CD80 IgV-Fc E35D/D46E/M47V/V68M/L85Q (Fc fusion)
CD28 (human) [1]
  RLU at 5.0 nM: Fold Increase over WT CD80-IgV-Fc: 2.5 fold
PD-L1 (human) [2]
  RLU at 5.0 nM: Fold Increase over WT CD80-IgV-Fc: 2.5 fold

## variant CD80 IgV-Fc A26E/E35D/M47L/A71G (Fc fusion)
CD28 (human) [3]
  MFI at 33.3 nM: 236 MFI
Human CTLA-4 (human) [4]
  MFI at 33.3 nM: 341000 MFI
PD-L1 (human) [5]
  MFI at 33.3 nM: 53400 MFI
CD28 (human) [6]
  MFI at 33.3 nM: 2160 MFI
Human CTLA-4 (human) [7]
  MFI at 33.3 nM: 20600 MFI

## variant CD80 IgV-Fc E35D/A71D (SEQ ID NO 194) (Fc fusion)
CD28 (human) [8]
  Fold increase in IL2 reporter signal (Jurkat/IL2 reporter assay) (fold vs WT CD80 IgV-Fc): 0.2

## CD80 IgV-Fc H18Y/E35D/M47L/Y53F/V68M/A71G (Fc fusion)
CD28 (human) [1]
  RLU at 5.0 nM: Fold Increase over WT CD80-IgV-Fc: 0.3 fold
PD-L1 (human) [2]
  RLU at 5.0 nM: Fold Increase over WT CD80-IgV-Fc: 0.3 fold
CD28 (human) [9]
  RLU at 5.0 nM: Fold Increase over WT CD80-IgV-Fc: 5.7 fold
PD-L1 (human) [10]
  RLU at 5.0 nM: Fold Increase over WT CD80-IgV-Fc: 5.7 fold
CD28 (human) [11]
  Fold change to WT CD80: 11.6 fold
  MFI at 33.3 nM: 478 MFI
Human CTLA-4 (human) [12]
  Fold change to WT CD80: 18.7 fold
  MFI at 33.3 nM: 19500 MFI
PD-L1 (human) [13]
  Fold change to WT CD80: 135 fold
  MFI at 33.3 nM: 9580 MFI
PD-L1 (human) [14]
  Ratio of PDL1:CD28: 20

## CD80 H18Y/E35D/M47L/V68M/E95V/L97Q IgV-Fc (Fc fusion)
CD28 (human) [15]
  Fold change to WT CD80: 0.5 fold
  MFI at 33.3 nM: 14.5 MFI
Human CTLA-4 (human) [16]
  Fold change to WT CD80: 11.7 fold
  MFI at 33.3 nM: 20500 MFI
PD-L1 (human) [17]
  Fold change to WT CD80: 286 fold
  MFI at 33.3 nM: 14800 MFI
PD-L1 (human) [18]
  Ratio of PDL1:CD28: 1020

## WT CD80 ECD-Fc (inert) (Fc fusion)
CD28 (human) [19]
  Jurkat/IL2 reporter RLU at 50 nM, CHO/OKT3 aAPC without PD-L1: 420 RLU
CD28 (human) [20]
  MFI at 66.6 nM: 3070 MFI

## WT CD80 ECD-Fc (control of Table E5) (Fc fusion)
CD28 (human) [8]
  Fold increase in IL2 reporter signal (Jurkat/IL2 reporter assay) (fold vs WT CD80 IgV-Fc): 0.93

## variant CD80 IgV-Fc D46V/V68M (Fc fusion)
PD-L1 (human) [21]
  MFI at 33.3 nM: 2270 MFI
Human CTLA-4 (human) [22]
  MFI at 33.3 nM: 5330 MFI
CD28 (human) [23]
  MFI at 33.3 nM: 556 MFI
PD-L1 (human) [24]
  Fold change to WT CD80: 17.7 fold

## variant CD80 IgV-Fc E35D/M47V/N48K/K89N (Fc fusion)
PD-L1 (human) [21]
  MFI at 33.3 nM: 6670 MFI
Human CTLA-4 (human) [22]
  MFI at 33.3 nM: 43800 MFI
CD28 (human) [23]
  MFI at 33.3 nM: 701 MFI
PD-L1 (human) [24]
  Fold change to WT CD80: 52.1 fold
Human CTLA-4 (human) [25]
  Fold change to WT CD80: 1.1 fold

## CD80 IgV-Fc V22D/E24D/E35D/M47L/V68M (Fc fusion)
CD28 (human) [1]
  RLU at 5.0 nM: Fold Increase over WT CD80-IgV-Fc: 2.4 fold
PD-L1 (human) [2]
  RLU at 5.0 nM: Fold Increase over WT CD80-IgV-Fc: 2.4 fold

## variant CD80 IgV-Fc Q27H/E35D/D46V/M47L/A71G (Fc fusion)
CD28 (human) [6]
  MFI at 33.3 nM: 10400 MFI

## variant CD80 IgV-Fc (inert) H18V/A26S/E35D/M47L/V68M/A71G/D90G (Fc fusion)
CD28 (human) [15]
  MFI at 33.3 nM: 8060 MFI
Human CTLA-4 (human) [26]
  MFI at 33.3 nM: 24900 MFI
PD-L1 (human) [27]
  MFI at 33.3 nM: 73900 MFI
Human CTLA-4 (human) [28]
  Fold change to WT CD80: 18 fold
PD-L1 (human) [29]
  Fold change to WT CD80: 448 fold
CD28 (human) [30]
  Fold change to WT CD80: 79 fold

## CD80 H18Y/E35D/D46E/M47I/V68M/R94L IgV-Fc (Fc fusion)
CD28 (human) [15]
  Fold change to WT CD80: 7.8 fold
  MFI at 33.3 nM: 244 MFI
Human CTLA-4 (human) [16]
  Fold change to WT CD80: 13.3 fold
  MFI at 33.3 nM: 23300 MFI
PD-L1 (human) [17]
  Fold change to WT CD80: 365 fold
  MFI at 33.3 nM: 18800 MFI
PD-L1 (human) [18]
  Ratio of PDL1:CD28: 77.1

## variant CD80 IgV-Fc V22L/M38V/M47T/A71D/L85M (Fc fusion)
CD28 (human) [8]
  Fold increase in IL2 reporter signal (Jurkat/IL2 reporter assay) (fold vs WT CD80 IgV-Fc): 0.43

## CD80 IgV-Fc E35D/M47I/V68M/Y87N (Fc fusion)
CD28 (human) [1]
  RLU at 5.0 nM: Fold Increase over WT CD80-IgV-Fc: 2.4 fold
PD-L1 (human) [2]
  RLU at 5.0 nM: Fold Increase over WT CD80-IgV-Fc: 2.4 fold

## CD80 IgV-Fc E35D/D46E/M47I/V68M/L85M (Fc fusion)
CD28 (human) [1]
  RLU at 5.0 nM: Fold Increase over WT CD80-IgV-Fc: 3.1 fold
PD-L1 (human) [2]
  RLU at 5.0 nM: Fold Increase over WT CD80-IgV-Fc: 3.1 fold

## CD80 E35D/M47L/V68M/E95V/L97Q IgV-Fc (Fc fusion)
CD28 (human) [15]
  Fold change to WT CD80: 0.5 fold
  MFI at 33.3 nM: 14 MFI
Human CTLA-4 (human) [16]
  Fold change to WT CD80: 8.5 fold
  MFI at 33.3 nM: 15000 MFI
PD-L1 (human) [17]
  Fold change to WT CD80: 361 fold
  MFI at 33.3 nM: 18600 MFI
PD-L1 (human) [18]
  Ratio of PDL1:CD28: 1300

## CD80 E35D/M47V/L85M/R94Q IgV-Fc (Fc fusion)
CD28 (human) [31]
  IL2-luciferase reporter (RLU), fold increase over WT CD80-IgV-Fc at 5.0 nM: 1.2 fold
PD-L1 (human) [32]
  IL2-luciferase reporter (RLU), fold increase over WT CD80-IgV-Fc at 5.0 nM: 1.2 fold
